Residue numbers refer to the chain shown, from its start.
B1: NRCoV2-10 VHH (VHH)
VHH: QLQLQESGGGLVQPGGSLTLSCAASGNTFSRSNMHWYRQAPGAQREWVAAISSRGISTYAYSAKGRFTISRDNAKNTVSLQMNSLKPEDTAVYYCYAADDLGDYWGQGTQVTVSS
B2: NRCoV2-02 VHH (VHH)
VHH: EVQLVESGGGLVQAGGSLRLSCAASGFTFSNYAMNWVRQAPGKGLEWVSGISGRGDDTRYADSVKGRFTISRDNAKNTLFLQMRSLRPEDTGVYRCTKGPDLYYFGSGYSDRGQGTQVTVSS
B3: NRCoV2-1d VHH (VHH)
VHH: EVQLVESGGGSVQPGGSLRLSCAASGSTLDYYAIGWFRQAPGKEREWVSSVSSSDGNTLYADSVKGRFTISRDNAKNTVYLQMNSLKAEDTAVYVCAADYSMRPFAVGRWHRDYEYWGQGTQVTVSS
B4: NRCoV2-20 VHH (VHH)
VHH: EVQLQQSGGGLVQPGGSLRLSCAASGRTFSNYVVGWFRQAPQAPGKDHEFVAVISGSDTETYYADSVKGRFTISRDNAKNTVYLQMNSLKPEDTAVYYCAADRGMSYYYTRATEYYYWGQGTQVTVSS
B5: NRCoV2-SR01 VHH (VHH)
VHH: EVQLVQSGGGSVQAGGSLRLSCVASGFTFDNYAIGWFRQAPGKEREGVSCISGNGGVTIYADSVKGRFTISRDNAKNLVYLQMNSLKPEDTAVYYCAATGIRSTWSVYGCSRLAGPYDYWGQGTQVTVSS
B6: NRCoV2-06 VHH (VHH)
VHH: EVQLVQSGGGLVQAGESLRLSCAASVSTFSSYAMGWYRQAPGKQRELVASIGFVGATYYIDSVKGRFTISRDNAKKTAYLQMNDLKPDDTAVYYCNARHYGGSEYWGQGTQVTVSS
B7: NRCoV2-05 VHH (VHH)
VHH: EVKLVQSGGGLVQPGGSLRLSCAASGFIFSNYAMNWVRQAPGKGLEWVSGINSGGGDTRYADSVKGRFTVSRDNAKNTLYLQMNSLKPEDTGVYYCSKGPVSSYYGSGYDYRGQGTQVTVSS
B8: NRCoV2-MRed04 VHH (VHH)
VHH: EVQLVESGGGLVQPGRSLRLSCAASGNSFSISTMGWFRQAPGKERELVASIWSDTTTSYADSVKGRFTISTDNTRTKVYLQMSSLNPEDTAVYYCAADRGFVVRGQYDYWGQGTQVTVSS
B9: NRCoV2-SR13 VHH (VHH)
VHH: EVQLVESGGGLVTTGGSLRLSCATSGSRFGSKHMAWYRQAPGKQRDLVAAISSGGSTHYGSSVKGRFTISRDNAKSTVYLQMNSLNPEDTAVFYCNMGGWDYRSNTYIPGSRSDYWGQGTQVTVSS
B10: NRCoV2-11 VHH (VHH)
VHH: EVQLVSSGGGLVQPGGSLRLSCAASGSSLDSYSVSWFRQAPGKEREWISFISRYYSSTYYTDSVKGRFTTSRDGDQKTVHLQMNSLKPEDTAVYYCAARSRDFSSPFSATDTYTSWGQGTQVTVSS
B11: NRCoV2-14 VHH (VHH)
VHH: EVQLVSSGGGLVQAGGSLRLSCEASGTTFSHYAVGWYRQAPGKQREWVASISVFGSTTYGGSVAGRFTISRDNDKNTVDLQMNSLKPEDTAVYYCHAVNADIGGDYWGQGTQVTVSS
B12: NRCoV2-04 VHH (VHH)
VHH: AVQLVDSGGGLVQPGGSLRLSCAASGSPFSNVVMAWYRQAPGKQRERVAFISGGGIADYIMSVKGRFTISRDNAKNTVYLQMNSLKPEDTAVYYCWSSYESTWGQGTQVTVSS
B13: NRCoV2-07 VHH (VHH)
VHH: QVQLVQSGGGLVQPGGSLRLSCAASGVTLDYYAIGWFRQAPGKEREAVSCISSNGRRNHYVASVRGRFTISRDNAKSTVYLQMNSLKPEDTAVYYCAAVQDVHGDNYYCTSPNEYNVWGQGTQVTVSS
B14: NRCoV2-18 VHH (VHH)
VHH: EVQLVESGGGLVQAGGSLRLSCVASGITISGYNMAWWRQTRGKQTERVAFINSGGSTTYSDSVKGRFTISRDNGKNTAYLQMNSLNAEDTADYFCSLHTSHDYWGQGTQVTVSS
B15: NRCoV2-15 VHH (VHH)
VHH: EVQLVSSGGGLVEAGGSLRLSCIASGSTSGRNTMGWFRQAPGKQREWVAIVSTSGATNYAGSVKGRFTLSRDNAKNAVYLQMNNLKPEDTAVYYCYAAYGGGGDYWGQGTQVTVSS
B16: NRCoV2-SR02 VHH (VHH)
VHH: EVQLVDSGGGLVQAGGSLRLSCTASEFTLNYYSIGWFRQSPGKEREGVSCIRYSGGGIDYADSVKGRFTISRDNAKNTVYLTMNSLKPEDTAVYYCAADRLYSRACPTAGGRNYWGQGTQVTVSS
B17: NRCoV2-03 VHH (VHH)
VHH: EVQLVSSGGGLVQAGGSLRLSCTASGITFSYYAMGWYRQAPGQPRELVASMSNMDSTIYADSVKGRFTISRDNAKTTIYLQMNNLKPEDTAVYFCNIYGPTYSTRRNEYWGQGTQVTVSS
B18: NRCoV2-17 VHH (VHH)
VHH: EVQLQQSGGGLVQTGGSLRLSCAAAGSPFSQLAMSWYRQISGKERAWVASISPTGNRSYSKIAKGRFTISRDNAKNTVTLQMTSLKPEDTAAYICQAANVNGGDYWGQGTQVTVSS
B19: NRCoV2-1a VHH-Fc (Fc fusion)
chain: B3 VHH with Q3K, E6Q, S50C, N57S, A88P, F105L, A106W, G108S
notes: bivalent VHH-Fc
B20: NRCoV2-11a VHH-Fc (Fc fusion)
chain: EVQLQQSGGGLVQPGGSLRLSCAASGFTLDSYNIAWFRQAPGKEREWISYISRYYESTYYSDSVKGRFTTSRDGDKKTVSLQMNSLKSEDTAVYYCAARSRDFSSPISATDKYGSWGQGTQVTVSS
notes: bivalent VHH-Fc
B21: NRCoV2-S2H4 VHH-Fc (Fc fusion)
chain: QVQLVQSGGGLVQAGGSLRLSCAASGFTFNLYSIAWFRQAPGKEREGVSCINSGDRDSTTYYADSVKGRFTISRDNAKHTAYLQMDSLKPEDTAVYYCALVFGYTSRDYCLTPKRGNYWGQGTQVTVSS
notes: bivalent VHH-Fc
B22: NRCoV2-MRed25 VHH-Fc (Fc fusion)
chain: EVQLVESGGGLVQAGGSLRLSCAASGHTFSRYGMGWFRQAPGKEREFVAAISWRGDSTYYRDSVNGRFTISRDNAKNTVYLGMNSLKPEDTAVYYCAAEMWGTATIVASRYTYWGQGTQVTVSS
notes: bivalent VHH-Fc
B23: NRCoV2-1a VHH-Fc (Fc fusion)
chain: B3 VHH with Q3K, E6Q, S50C, N57S, A88P, F105L, A106W, G108S
notes: bivalent VHH-Fc
B24: NRCoV2-11a VHH-Fc (Fc fusion)
chain: B20 chain
notes: bivalent VHH-Fc

target: T1, Human SARS-CoV-2_Wuhan S (SmT1) (SARS-CoV-2 (Wuhan), UniProt P0DTC2 14-1208); test: SPR, VHH over immobilised S

Row | Binder | Kd
1 | B1 | 0.2 nM
2 | B2 | 0.62 nM
3 | B3 | 0.75 nM
4 | B4 | 4.39 nM
5 | B5 | 0.56 nM
6 | B6 | 223 nM
7 | B7 | 2.6 nM
8 | B8 | 0.86 nM
9 | B9 | 3.6 nM
10 | B10 | 0.018 nM
11 | B11 | 2.6 nM
12 | B12 | 10.2 nM
13 | B13 | 0.94 nM
14 | B14 | 0.32 nM
15 | B15 | 0.32 nM
16 | B16 | 0.47 nM
17 | B17 | 1.56 nM
18 | B18 | 0.15 nM

target: T2, SARS-CoV-2 S on CHO-S cells (SARS-CoV-2, UniProt P0DTC2 14-1273); test: flow cytometry, CHO-S cells
T2 construct: whole, on cells

Row | Binder | Bmax | EC50
19 | B19 | 17200 | 1.1 nM
20 | B20 | 12000 | 2 nM
21 | B21 | 7910 | 1 nM
22 | B22 | 4420 | 0.8 nM

target: T1, Human SARS-CoV-2_Wuhan S (SmT1); test: SPR, VHH over immobilised S; remark: another data set of the same source

Row | Binder | Kd | koff | kon
23 | B1 | 0.199 nM | 0.000116 s⁻¹ | 581000 M⁻¹ s⁻¹
24 | B2 | 0.624 nM | 0.00127 s⁻¹ | 2.04e+06 M⁻¹ s⁻¹
25 | B3 | 0.75 nM | 0.00105 s⁻¹ | 1.39e+06 M⁻¹ s⁻¹
26 | B4 | 4.39 nM | 0.0116 s⁻¹ | 2.64e+06 M⁻¹ s⁻¹
27 | B5 | 0.564 nM | 0.000805 s⁻¹ | 1.43e+06 M⁻¹ s⁻¹
28 | B6 | 223 nM | 0.00456 s⁻¹ | 20500 M⁻¹ s⁻¹
29 | B7 | 2.57 nM | 0.00709 s⁻¹ | 2.76e+06 M⁻¹ s⁻¹
30 | B8 | 0.863 nM | 0.00131 s⁻¹ | 1.51e+06 M⁻¹ s⁻¹
31 | B9 | 3.56 nM | 0.00376 s⁻¹ | 1.06e+06 M⁻¹ s⁻¹
32 | B10 | 0.0177 nM | 1.71e-05 s⁻¹ | 964000 M⁻¹ s⁻¹
33 | B11 | 2.6 nM | 0.00101 s⁻¹ | 389000 M⁻¹ s⁻¹
34 | B12 | 10.2 nM | 0.0188 s⁻¹ | 1.84e+06 M⁻¹ s⁻¹
35 | B13 | 0.939 nM | 0.000355 s⁻¹ | 378000 M⁻¹ s⁻¹
36 | B14 | 0.318 nM | 9.39e-05 s⁻¹ | 295000 M⁻¹ s⁻¹
37 | B15 | 0.321 nM | 0.000222 s⁻¹ | 691000 M⁻¹ s⁻¹
38 | B16 | 0.135 nM | 0.000669 s⁻¹ | 4.98e+06 M⁻¹ s⁻¹
39 | B17 | 1.56 nM | 0.000181 s⁻¹ | 116000 M⁻¹ s⁻¹
40 | B18 | 0.154 nM | 9.45e-05 s⁻¹ | 614000 M⁻¹ s⁻¹

target: SARS-CoV spike (S) (SARS-CoV, UniProt P59594 14-1195); test: SPR, VHH over immobilised S

Row | Binder | binding result | Kd | koff | kon
41 | B1 | no binding |  |  | 
42 | B2 | no binding |  |  | 
43 | B5 |  | 0.154 nM | 0.000105 s⁻¹ | 681000 M⁻¹ s⁻¹
44 | B6 | no binding |  |  | 
45 | B7 | no binding |  |  | 
46 | B8 |  | 300 nM | 0.097 s⁻¹ | 323000 M⁻¹ s⁻¹
47 | B10 |  | 0.014 nM | 2.7e-05 s⁻¹ | 1.93e+06 M⁻¹ s⁻¹
48 | B11 | no binding |  |  | 
49 | B12 | no binding |  |  | 
50 | B13 |  | 12.2 nM | 0.00146 s⁻¹ | 120000 M⁻¹ s⁻¹
51 | B15 | no binding |  |  | 
52 | B17 | no binding |  |  | 
53 | B18 | no binding |  |  | 

target: Human SARS-CoV-2_Wuhan S (SmT1) (SARS-CoV-2 (Wuhan), UniProt P0DTC2 14-1208); test: flow cytometry SVNA, VHH-Fc vs biotin-S binding to Vero E6 ACE2

Row | Binder | IC50 | IC99 | Imax %
54 | B23 | 9.2 nM | 89.4 nM | 94%
55 | B24 | 9.7 nM | 67.6 nM | 46%

Source: patent US20240270826A1 (NATIONAL RESEARCH COUNCIL OF CANADA, published 2024)
